{
  "source": "patent US20230050148A1",
  "about": "“TGF-BETA INHIBITORS AND USE THEREOF” (SCHOLAR ROCK, INC., priority 2020, published 2023)",
  "molecules": {"B1": {"name": "Ab6-mIgG1: chimeric antibody with the human V domains of Ab6 fused to mouse IgG1/kappa constant domains (protein)", "heavy chain": "EVQLVESGGGLVQPGGSLRLSCTASGFTFSSFSMDWVRQAPGKGLEWVSYISPSADTIYYADSVKGRFTISRDNAKNTLYLQMNSLRAEDTAVYYCARGVLDYGDMLMPWGQGTLVTVSS", "light chain": "DIQMTQSPSSLSASVGDRVTITCQASQDITNYLNWYQQKPGKAPKLLIYDASNLETGVPSRFSGSGSGTDFTFTISSLQPEDIATYYCQQADNHPPWTFGGGTKVEIK"}, "B2": {"name": "Ab6 Fab: Fab fragment of Ab6 used as analyte in SPR and in HDX-MS (antibody, V domains shown)", "VH": "B1 heavy chain", "VL": "B1 light chain"}},
  "key": {"Cloudman S91 tumors": {"system": "Cloudman S91 tumors", "assay": "Cloudman S91 melanoma model", "format": "in vivo, DBA/2 mouse", "conditions": "dose range 3, 10 and 30 mg/kg", "description": "Clone M3 [Cloudman S91 melanoma] (ATCC® CCL-53.1™) cells were obtained from the American Type Culture Collection (ATCC), and were maintained at CR Discovery Services as exponentially growing suspension cultures in Kaighn's modified Ham's F12 Medium supplemented with 2.5% fetal bovine serum, 15% horse serum, 2 mM glutamine, 100 units/mL penicillin G sodium, 100 μg/mL streptomycin sulfate and 25 μg/mL gentamicin. The tumor cells were grown in tissue culture flasks in a humidified incubator at 37° C., in an atmosphere of 5% CO2 and 95% air.\nWhen tumors reached a volume of 125-175 mm^3 mice were randomized into groups of 12 with identical mean tumor volumes and dosing began.\nGroup 1 received anti-PD-1 antibody only. […] An untreated control was used, data not shown.\nPercent tumor growth delay (% TGD) is defined as the increase in the median time to endpoint in a treatment group compared to the untreated control, expressed as a percentage of the median time to endpoint (TTE) of the control: • T=median TTE for treatment • C=median TTE for control\nResults are summarized below (see FIGS. 9, 11 & 12).\n(§1) All antibodies were dosed intraperitoneally."}, "MBT2 tumors": {"system": "MBT2 tumors", "assay": "MBT2 syngeneic bladder cancer model, efficacy", "format": "in vivo, C3H/HeN mouse", "description": "Group 1 received anti-PD-1 antibody only. […] An untreated control was used, not shown.\nas §1"}, "[1]": {"system": "intratumoral immune cells in MBT2 tumors", "assay": "MBT2 tumor immune contexture (flow cytometry, IHC, qPCR)", "format": "in vivo, mouse", "conditions": "MBT-2", "from_the_text": "To study the immune effects of anti-PD-1 or Ab6-mIgG1 treatment as single agents or in combination, MBT-2 tumors were harvested from mice 10 days after treatment initiation and then subjected to immunohistochemical and flow cytometry analyses of select immune cell markers. […] The relevance of this increase in Treg cells is unclear given the significant anti-tumor effects observed with combination treatment. […] This appears to be due to selective reduction in CD11 b+CD206+ and CD11 b+Gr1+ subpopulations, which correspond to immunosuppressive M2-like macrophages and myeloid-derived suppressor cells (MDSC), respectively. Collectively, the representation of these two populations of cells is reduced from an average of 47% of the CD45+ cell population to 14% after combination treatment (FIG. 28B).\nEach study group contained 12 mice with MBT2 tumors as described herein. […]\nFlow cytometric analysis: Tumor-associated immune cell subsets were also analyzed by tumor flow cytometry in MBT-2 tumors. […] Flow cytometry was performed on a Attune NxT (ThermoFisher) and analyzed with FlowJo (BD Bioscience).\nFor immunohistochemical analysis, tumors from six animals were cut in halves and fixed. […] FIG. 30E provides the quantitation of the IHC data, shown as % of CD8-positive cells of total nuclei. […]"}, "EMT6 tumors": {"system": "EMT6 tumors", "assay": "EMT-6 syngeneic breast carcinoma model", "format": "in vivo, BALB/c mouse", "conditions": "dose 10 mg/kg", "description": "EMT6 tumors were implanted subcutaneously. Treatment began when EMT6 tumors reached 30-80 mm^3. Anti-PD-1 was dosed at 10 mkg twice weekly. […] Anti-TGFβ3 neutralizing antibody was dosed at 30 mkg once weekly.\nResponders are defined as those achieving tumor size of <25% of the endpoint volume at study end.\nas §1"}, "[2]": {"assay": "first-in-human dose selection (allometric scaling, PAD, safety factors)", "conditions": "S91, MBT-2, EMT-6 models, with anti-PD-1", "description": "In vivo pharmacology data was utilized to predict the human pharmacological active dose (PAD) and recommended the FIH dose. In addition, safety margins were determined between the predicted exposure at the recommended FIH dose and the exposure achieved at the NOAELs in toxicology studies."}, "[3]": {"conditions": "mouse, in vivo, iv", "quoted_text": "Pharmacokinetics studies were conducted in female C57BL/6 mice, SD rats, and cynomolgus monkeys. […] A non-GLP single-dose PK study was performed in C57BL/6 mice (10-11 weeks) at Gateway Pharmacology Laboratories in Chesterfield, Mo. Additional pharmacokinetic and toxicology studies were conducted in naive young adult Sprague Dawley rats (7-10 weeks) and cynomolgus monkeys (2-4 years).\nThe lower limit of quantitation (LLOQ) for the non-GLP assays were 125, 125, and 250 ng/mL for the mouse, rat, and cynomolgus monkey, respectively; and 75 ng/mL for the optimized and validated GLP assays (rat and monkey). The absorbance-versus concentration relationship was regressed using a 4-parameter logistic curve fit (with a weighting factor of 1/Y2 for the validated assays to support the toxicokinetic studies), and concentrations were calculated using GraphPad Prism or Watson LIMS (Thermo, Pennsylvania, USA) data reduction software.\nFemale mice were group housed (3-5 mice/cage) in polycarbonate cages containing appropriate bedding and water valves in a controlled environment (17.8-26.7° C.; 30-70% relative humidity; 12-hour light and dark cycles) and were offered standard rodent chow (PicoLab Rodent Diet 20) and tap water ad libitum. Mice were randomly assigned to treatment groups for all studies.\nPK parameters were calculated in Phoenix® WinNonlin® (Certara USA Inc.) from the concentration-time data using a noncompartmental analysis method with intravenous (IV) bolus input. Nominal doses and sampling times were used. […] Area under the concentration time curve (AUC) was computed using the linear trapezoidal approximation method. Terminal half-life (t1/2) was estimated by log-linear regression of the terminal phase of the mean concentration versus time profiles. At least 3 points clearly visible in the terminal phase, an r^2 value of at least 0.8, and time interval of at least 3 half-lives (in the GLP toxicity studies only) were required to characterize half-life."}, "human GARP-ProTGFb1": {"target": "T1, human GARP-ProTGFb1 (Homo sapiens, UniProt P01137)", "T1 construct": "made in house", "T1 sequence (P01137 30-390)": "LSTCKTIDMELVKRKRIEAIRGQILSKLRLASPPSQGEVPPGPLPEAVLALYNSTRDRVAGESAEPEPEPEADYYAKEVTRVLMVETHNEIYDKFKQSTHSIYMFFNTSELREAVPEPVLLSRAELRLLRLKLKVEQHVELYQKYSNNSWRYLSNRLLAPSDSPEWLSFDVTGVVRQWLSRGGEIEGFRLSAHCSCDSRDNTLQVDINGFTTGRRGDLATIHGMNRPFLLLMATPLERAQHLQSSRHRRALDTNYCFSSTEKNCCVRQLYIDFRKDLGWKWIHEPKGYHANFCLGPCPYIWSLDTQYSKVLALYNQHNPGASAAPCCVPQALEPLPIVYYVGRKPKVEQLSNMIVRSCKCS", "T1 sequence (Q14392 20-627 partner limits assumed)": "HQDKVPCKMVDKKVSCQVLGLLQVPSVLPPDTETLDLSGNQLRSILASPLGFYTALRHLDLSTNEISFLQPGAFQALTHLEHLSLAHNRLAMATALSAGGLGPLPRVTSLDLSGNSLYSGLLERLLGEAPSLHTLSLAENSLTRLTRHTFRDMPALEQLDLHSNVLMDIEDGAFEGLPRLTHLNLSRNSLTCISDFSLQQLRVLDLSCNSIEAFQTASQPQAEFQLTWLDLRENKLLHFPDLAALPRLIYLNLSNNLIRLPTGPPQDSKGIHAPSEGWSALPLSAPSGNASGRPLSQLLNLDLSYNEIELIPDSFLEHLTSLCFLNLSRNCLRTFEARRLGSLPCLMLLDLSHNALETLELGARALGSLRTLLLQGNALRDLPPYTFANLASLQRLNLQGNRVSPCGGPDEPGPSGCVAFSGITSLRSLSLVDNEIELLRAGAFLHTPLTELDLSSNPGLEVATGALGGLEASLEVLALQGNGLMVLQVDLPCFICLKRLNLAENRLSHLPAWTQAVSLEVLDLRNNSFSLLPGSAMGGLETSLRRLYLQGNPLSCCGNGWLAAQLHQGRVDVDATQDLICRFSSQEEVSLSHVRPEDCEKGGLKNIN", "assay": "SPR (Biacore 8K) Fab binding kinetics", "conditions": "Fab 0.62-10 nM, 1:1 binding model", "description": "(§2) Briefly, the binding kinetics were evaluated by surface plasmon resonance using Biacore 8K (GE Healthcare). A Biotin CAP sensor chip was used to capture the biotinylated antigens. Fabs at various concentrations (0 nM, 0.62 nM, 1.25 nM, 2.5 nM, 5 nM and 10 nM) were injected over the captured antigens. Multi-cycle kinetics was employed where each analyte concentration was injected in a separate cycle and the sensor chip surface was regenerated after each cycle. All the assays were carried out in freshly prepared 1×HBS-EP+ buffer (10 mM HEPES, 150 mM NaCl, 3 mM EDTA, 0.05% Tween20, pH 7.4). Data for all the analyte concentrations for each interaction were fit globally to a 1:1 binding model to obtain the kinetic parameters. The Sensorgram for 0 nM analyte concentration was used as reference.\n(§3) Binding kinetics was evaluated by surface plasmon resonance using a Biacore 8K (GE) instrument. Biotinylated antigens were captured on a Biotin CAP chip and the Fab fragments of the antibodies were used as analytes. Sensorgrams for Fab binding at variable concentrations (0.6-10 nM) were globally fit to obtain the kinetic parameters. Binding kinetics for the Fabs were evaluated against each of the four human antigens, LTBP1-ProTGFb1, LTBP3-ProTGFb1, GARP-ProTGFb1, and LRRC33-ProTGFb1."}, "human LRRC33-ProTGFb1": {"target": "T2, human LRRC33-ProTGFb1 (Homo sapiens, UniProt P01137)", "T2 construct": "made in house", "T2 sequence (P01137 30-390)": "as the sequence (P01137 30-390) above", "T2 sequence (Q86YC3 19-650 partner limits assumed)": "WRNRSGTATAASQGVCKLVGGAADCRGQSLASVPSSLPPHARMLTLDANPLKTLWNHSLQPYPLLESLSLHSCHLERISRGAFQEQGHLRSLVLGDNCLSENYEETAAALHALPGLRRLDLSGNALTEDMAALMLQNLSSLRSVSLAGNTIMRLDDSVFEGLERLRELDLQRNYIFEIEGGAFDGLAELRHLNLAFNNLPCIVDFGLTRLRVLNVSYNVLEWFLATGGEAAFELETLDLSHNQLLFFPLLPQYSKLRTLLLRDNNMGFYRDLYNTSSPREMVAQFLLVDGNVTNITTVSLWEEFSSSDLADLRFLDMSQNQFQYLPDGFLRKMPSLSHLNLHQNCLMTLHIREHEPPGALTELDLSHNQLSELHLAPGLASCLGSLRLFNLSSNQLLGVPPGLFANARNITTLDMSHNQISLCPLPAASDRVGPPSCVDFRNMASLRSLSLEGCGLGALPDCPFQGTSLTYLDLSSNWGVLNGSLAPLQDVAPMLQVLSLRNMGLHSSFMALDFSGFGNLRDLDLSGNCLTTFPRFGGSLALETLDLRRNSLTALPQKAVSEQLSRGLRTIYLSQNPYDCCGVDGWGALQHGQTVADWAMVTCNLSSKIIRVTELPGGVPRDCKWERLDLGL", "assay": "SPR (Biacore 8K) Fab binding kinetics", "conditions": "Fab 0.62-10 nM, 1:1 binding model", "description": "as §2, §3"}, "human LTBP1-ProTGFb1": {"target": "T3, human LTBP1-ProTGFb1 (Homo sapiens, UniProt P01137)", "T3 construct": "made in house; host or cells: Expi293F cells, co-transfected with pTT5 plasmids", "T3 sequence (P01137 30-390)": "as the sequence (P01137 30-390) above", "T3 sequence (Q14766 873-1507 partner)": "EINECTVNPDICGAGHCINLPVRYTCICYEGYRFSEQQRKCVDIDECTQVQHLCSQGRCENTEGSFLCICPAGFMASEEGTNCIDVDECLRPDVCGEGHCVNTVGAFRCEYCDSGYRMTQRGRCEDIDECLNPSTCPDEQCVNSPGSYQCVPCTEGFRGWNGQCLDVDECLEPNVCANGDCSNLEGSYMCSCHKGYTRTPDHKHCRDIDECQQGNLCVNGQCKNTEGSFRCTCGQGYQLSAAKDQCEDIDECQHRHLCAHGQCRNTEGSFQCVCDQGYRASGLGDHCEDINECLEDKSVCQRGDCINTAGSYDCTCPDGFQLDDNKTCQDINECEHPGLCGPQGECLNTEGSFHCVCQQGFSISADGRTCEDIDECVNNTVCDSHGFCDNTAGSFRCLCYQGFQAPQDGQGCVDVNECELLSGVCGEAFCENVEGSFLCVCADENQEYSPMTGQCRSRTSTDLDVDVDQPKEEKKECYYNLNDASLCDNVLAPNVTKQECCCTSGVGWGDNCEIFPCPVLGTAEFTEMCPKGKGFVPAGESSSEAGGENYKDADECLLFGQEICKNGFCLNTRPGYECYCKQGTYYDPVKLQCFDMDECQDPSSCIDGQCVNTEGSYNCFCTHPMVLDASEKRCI", "assay": "SPR (Biacore 8K) Fab binding kinetics", "conditions": "Fab 0.62-10 nM, 1:1 binding model", "description": "as §2, §3"}, "human LTBP3-ProTGFb1": {"target": "T4, human LTBP3-ProTGFb1 (Homo sapiens, UniProt P01137)", "T4 construct": "made in house; host or cells: Expi293F cells, co-transfected with pTT5 plasmids", "T4 sequence (P01137 30-390)": "as the sequence (P01137 30-390) above", "T4 sequence (Q9NS15 866-1039 partner limits assumed)": "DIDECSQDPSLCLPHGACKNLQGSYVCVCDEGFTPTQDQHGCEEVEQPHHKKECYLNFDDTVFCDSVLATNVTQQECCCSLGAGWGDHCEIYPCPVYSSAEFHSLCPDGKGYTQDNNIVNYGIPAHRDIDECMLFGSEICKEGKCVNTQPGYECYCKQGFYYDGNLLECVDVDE", "assay": "SPR (Biacore 8K) Fab binding kinetics", "conditions": "Fab 0.62-10 nM, 1:1 binding model", "description": "as §2, §3"}, "proTGFβ1 / latent TGFβ1": {"target": "T5, proTGFβ1 / latent TGFβ1 (Homo sapiens, UniProt P01137, C33S)", "T5 construct": "The small latent TGFβ complexes were expressed with an N-terminal His-tag; His-tag (N); made in house; host or cells: Expi293F cells", "T5 sequence (P01137 with tags, fused parts or gaps C33S)": "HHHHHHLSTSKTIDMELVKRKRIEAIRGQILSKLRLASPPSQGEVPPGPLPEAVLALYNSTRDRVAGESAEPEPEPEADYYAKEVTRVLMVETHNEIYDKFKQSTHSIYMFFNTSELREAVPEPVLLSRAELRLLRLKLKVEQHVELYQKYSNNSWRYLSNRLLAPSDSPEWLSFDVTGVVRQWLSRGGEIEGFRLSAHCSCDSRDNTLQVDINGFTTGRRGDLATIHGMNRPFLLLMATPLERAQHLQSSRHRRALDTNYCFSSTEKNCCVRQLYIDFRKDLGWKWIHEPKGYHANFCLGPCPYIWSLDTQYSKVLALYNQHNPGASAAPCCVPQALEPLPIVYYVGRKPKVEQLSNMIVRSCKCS", "assay": "HDX-MS epitope mapping", "conditions": "Fab binding", "from_the_text": "To gain initial insights into the inhibitory mechanism of action for the isoform-selective inhibitors of TGFβ1 activation, we performed Hydrogen-Deuterium Exchange Mass Spectrometry (H/DX-MS) analysis to identify possible sites of latent TGFβ1 interaction with the antibody. Hydrogen/Deuterium exchange mass spectrometry (HDX-MS) is a widely used technique for exploring protein conformation in solution. HDX-MS methodology is described in Wei et al., Drug Discov Today. 2014 January; 19(1): 95-102, incorporated by reference in its entirety herein. Briefly, HDX-MS relies on the exchange of the protein backbone amide hydrogens with deuterium in solution. […]\nAccurate mass and collision-induced dissociation in data-independent acquisition mode (MSE) and ProteinLynx Global Server (PLGS) 3.0 software (Waters Corp., Milford, Mass.) were used to determine the peptic peptides in the undeuterated protein samples analyzed on the same UPLC-ESI-QToF system used for H/DX-MS experiments. […] The relative deuterium incorporation of each peptide was determined by subtracting the weight-averaged centroid mass of the isotopic distribution of undeuterated control sample from that of the weight-averaged centroid mass of the isotopic distribution of deuterium-labeled samples at each labeling time point. […]"}},
  "note": "Read-outs that look alike come from different tables or passages of the source.",
  "data": [
    {"molecule": "B1", "values": [
      {"measurement": "PAD", "setting": "Cloudman S91 tumors", "value": 3, "unit": "mg/kg"},
      {"measurement": "tumor-free survivors", "setting": "MBT2 tumors; MBT2, 3 mg/kg per week + anti-PD-1", "value": 21, "unit": "%"},
      {"measurement": "tumor-free survivors", "setting": "MBT2 tumors; MBT2, 10 mg/kg per week + anti-PD-1", "value": 36, "unit": "%"},
      {"measurement": "PAD", "setting": "MBT2 tumors; MBT-2, dose range 3 and 10 mg/kg", "value": 10, "unit": "mg/kg"},
      {"measurement": "pSmad3 staining in tumor vascular endothelium", "setting": "[1]", "value": "much diminished"},
      {"measurement": "PAD", "setting": "EMT6 tumors", "value": 10, "unit": "mg/kg"},
      {"measurement": "pharmacologically active dose (range)", "setting": "[2]", "value": "3-10 mg/kg"},
      {"measurement": "Cmax (mean, range over dose groups)", "setting": "[3]", "value": "7400 to 664000", "unit": "ng/mL"},
      {"measurement": "AUC0-inf", "setting": "[3]; 3 mg/kg", "value": 4890, "unit": "µg·h/mL"},
      {"measurement": "AUClast", "setting": "[3]; 3 mg/kg", "value": 4710, "unit": "µg·h/mL"},
      {"measurement": "AUC0-inf", "setting": "[3]; 10 mg/kg", "value": 17800, "unit": "µg·h/mL"},
      {"measurement": "AUClast", "setting": "[3]; 10 mg/kg", "value": 17400, "unit": "µg·h/mL"},
      {"measurement": "AUC0-inf", "setting": "[3]; 30 mg/kg", "value": 64200, "unit": "µg·h/mL"},
      {"measurement": "AUClast", "setting": "[3]; 30 mg/kg", "value": 64100, "unit": "µg·h/mL"}
    ]},
    {"molecule": "B2", "values": [
      {"measurement": "koff", "setting": "human GARP-ProTGFb1", "value": 0.000218, "unit": "s⁻¹"},
      {"measurement": "kon", "setting": "human GARP-ProTGFb1", "value": "2.1e+06", "unit": "M⁻¹ s⁻¹"},
      {"measurement": "koff", "setting": "human LRRC33-ProTGFb1", "value": 0.000123, "unit": "s⁻¹"},
      {"measurement": "kon", "setting": "human LRRC33-ProTGFb1", "value": 845000, "unit": "M⁻¹ s⁻¹"},
      {"measurement": "koff", "setting": "human LTBP1-ProTGFb1", "value": 0.000255, "unit": "s⁻¹"},
      {"measurement": "kon", "setting": "human LTBP1-ProTGFb1", "value": "2.05e+06", "unit": "M⁻¹ s⁻¹"},
      {"measurement": "koff", "setting": "human LTBP3-ProTGFb1", "value": 0.000831, "unit": "s⁻¹"},
      {"measurement": "kon", "setting": "human LTBP3-ProTGFb1", "value": "1.7e+06", "unit": "M⁻¹ s⁻¹"},
      {"measurement": "regions on proTGFβ1 strongly protected from deuterium exchange", "setting": "proTGFβ1 / latent TGFβ1", "value": "three binding regions"}
    ]}
  ]
}
